# Target: alpha-synuclein (UniProt P37840 1-140)
# Assay: interdigitated electrode current change (aptamer-GNP immobilized); 1 uM protein; titration 10 pM-1 uM, detection limit 10 pM (not a Kd); Aptamer-GNP on APTES-modified IDE, blocked with 1 M ethanolamine (30 min, RT); PBS listed as reagent, binding buffer, salt, pH and temperature not stated
binder,measurement,value
antisynuclein aptamer (ssDNA) DNA: ATAGTCCCATCATTCATTGTATGGTACGGCGCGGTGGCGGGTGCGTGGAGATATTAGCAAGTGTCA,binding result,binds

# — publication PMC6915026
